The values that follow come from patent US20260232769A1 (WUXI BIOLOGICS IRELAND, published 2026).

Assay [1] concerns the target T1, IL-2Rβ/γc complex (intermediate affinity receptor) on primary human CD8+ T cells (human, UniProt P14784 27-551; P31785 23-369).
T1 sequence (looked up) 1: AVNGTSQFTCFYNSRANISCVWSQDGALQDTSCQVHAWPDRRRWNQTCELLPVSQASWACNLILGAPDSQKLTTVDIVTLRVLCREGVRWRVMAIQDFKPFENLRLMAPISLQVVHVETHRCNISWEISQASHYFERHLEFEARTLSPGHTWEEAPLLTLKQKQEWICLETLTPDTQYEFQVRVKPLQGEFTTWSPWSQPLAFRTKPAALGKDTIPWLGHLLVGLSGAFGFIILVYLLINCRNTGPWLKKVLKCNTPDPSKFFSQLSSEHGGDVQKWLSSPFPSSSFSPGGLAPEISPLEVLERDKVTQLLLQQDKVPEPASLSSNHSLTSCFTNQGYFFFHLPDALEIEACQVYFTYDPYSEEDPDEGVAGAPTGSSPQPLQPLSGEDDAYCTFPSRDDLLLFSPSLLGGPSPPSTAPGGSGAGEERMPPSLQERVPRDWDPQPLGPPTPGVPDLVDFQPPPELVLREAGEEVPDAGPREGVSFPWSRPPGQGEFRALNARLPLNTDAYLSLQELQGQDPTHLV
T1 sequence (looked up) 2: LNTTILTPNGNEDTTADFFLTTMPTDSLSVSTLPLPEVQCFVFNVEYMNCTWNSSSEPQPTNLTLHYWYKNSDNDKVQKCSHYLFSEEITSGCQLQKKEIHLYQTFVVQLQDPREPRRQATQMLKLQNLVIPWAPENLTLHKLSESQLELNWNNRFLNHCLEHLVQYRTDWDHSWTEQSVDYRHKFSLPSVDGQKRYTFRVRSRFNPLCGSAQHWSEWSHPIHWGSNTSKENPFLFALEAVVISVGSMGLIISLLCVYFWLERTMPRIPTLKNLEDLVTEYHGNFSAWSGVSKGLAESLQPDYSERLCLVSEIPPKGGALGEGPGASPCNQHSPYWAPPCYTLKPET
The experiment in a line: cell-based or functional assay.

Assay [2] concerns the target T1, IL-2Rβ/γc complex (intermediate …). The experiment in a line: cell-based or functional assay. This is another data set of the same source.

Residue numbers refer to the chain shown, from its start.

B1: W3XX115-T2U0.E44-40.uIgG4V322 (Fc fusion)
chain: APTSSSTKKTQLQLEHLLLDLQMILNGINNYKNPKLTRMLTFKFYMPKKATELKHLQCLEEELKPLEEVLNLAQSKNFHLRPRDLISNINVIVLELKGSETTFMCEYADRTATIVEFLNRWITFCQSIIESKYGPPCPPCPAPEAAGGPSVFLFPPKPKDTLMISRTPEVTCVVVDVSQEDPEVQFNWYVDGVEVHNAKTKPREEQFNSTYRVVSVLTVLHQDWLNGKEYKCKVSNKGLPSSIEKTISKAKGQPREPQVYTLPPCQEEMTKNQVSLWCLVKGFYPSDIAVEWESNGQPENNYKTTPPVLDSDGSFFLYSRLTVDKSRWQEGNVFSCSVMHEALHNHYTQKSLSLSLG
heavy: EIQLQQSGPELVKPGASVKVSCKASGYSFTDYNMYWVKQSHGESLEWIGYIDPYNGGTRYNQKFKGKATLTVDKSSSTAFMHLNSLTSEDSAVYYCARNGHWDGAWFAYWGQGTLVTVSAASTKGPSVFPLAPCSRSTSESTAALGCLVKDYFPEPVTVSWNSGALTSGVHTFPAVLQSSGLYSLSSVVTVPSSSLGTKTYTCNVDHKPSNTKVDKRVESKYGPPCPPCPAPEAAGGPSVFLFPPKPKDTLMISRTPEVTCVVVDVSQEDPEVQFNWYVDGVEVHNAKTKPREEQFNSTYRVVSVLTVLHQDWLNGKEYKCKVSNKGLPSSIEKTISKAKGQPREPQVCTLPPSQEEMTKNQVSLSCAVKGFYPSDIAVEWESNGQPENNYKTTPPVLDSDGSFFLVSRLTVDKSRWQEGNVFSCSVMHEALHNHYTQKSLSLSLG
light: DIQMNQSPSSLSASLGDTITITCHASQNINVWLSWYQQKPGNIPKLLIYKASNLHTGVPSRFSGSRSGTGFTLTISSLQPEDIATYYCHQGQSYPFTFGSGTKLEIKRTVAAPSVFIFPPSDEQLKSGTASVVCLLNNFYPREAKVQWKVDNALQSGNSQESVTEQDSKDSTYSLSSTLTLSKADYEKHKVYACEVTHQGLSSPVTKSFNRGEC
In the case of B1, in assay [1], the “Potency reduction, pSTAT5, human primary CD8+ T” value turned out to be 36.9 fold and the “pSTAT5 EC50, human primary CD8+ T” value turned out to be 282 nM.

B2: W3XX115-T2U0.E44-43.uIgG4V322 (Fc fusion)
chain: B1 chain with K32D, R110E
heavy: B1 heavy
light: B1 light
As for B2, in assay [1], the “Potency reduction, pSTAT5, human primary CD8+ T” value was found to be 17.6 fold and the “pSTAT5 EC50, human primary CD8+ T” value is 135 nM.

B3: W3XX115-T2U10.Z73-56.uIgG4V322 (Fc fusion)
chain 1: APTSSSTKKTQLQLEHLLLDLQMILNGINNYDNPKLTRMLTIKFYMPKKATELKHLQCLEEELKPLEEVLNLAQSKNFHLRPRKLISNINVIVLELKGSETTFMCEYADETATIVEFLNRWITFCQSILESKYGPPCPPCPAPEAAGGPSVFLFPPKPKDTLMISRTPEVTCVVVDVSQEDPEVQFNWYVDGVEVHNAKTKPREEQFNSTYRVVSVLTVLHQDWLNGKEYKCKVSNKGLPSSIEKTISKAKGQPREPQVYTLPPCQEEMTKNQVSLWCLVKGFYPSDIAVEWESNGQPENNYKTTPPVLDSDGSFFLYSRLTVDKSRWQEGNVFSCSVMHEALHNHYTQKSLSLSLGK
chain 2: QVQLVESGGGVVQPGGSLRLSCAASDSIDSLVNMGWYRQAPGKQRELVALIATYITHYADFVKGRFTISRDNSKNTLYLQMNSLRAEDTAVYYCYARNIIVDYWGQGTLVTVSSGGGGSGGGGSGGGGSQVQLVESGGGVVQPGGSLRLSCAASDSIDSLVNMGWYRQAPGKQRELVALIATYITHYADFVKGRFTISRDNSKNTLYLQMNSLRAEDTAVYYCYARNIIVDYWGQGTLVTVSSESKYGPPCPPCPAPEAAGGPSVFLFPPKPKDTLMISRTPEVTCVVVDVSQEDPEVQFNWYVDGVEVHNAKTKPREEQFNSTYRVVSVLTVLHQDWLNGKEYKCKVSNKGLPSSIEKTISKAKGQPREPQVCTLPPSQEEMTKNQVSLSCAVKGFYPSDIAVEWESNGQPENNYKTTPPVLDSDGSFFLVSRLTVDKSRWQEGNVFSCSVMHEALHNHYTQKSLSLSLG
On to B3, for which, in assay [2], the “Potency reduction, pSTAT5, human activated CD8+ T” value came out at 2.5 fold.

B4: W3XX115-T2U10.Z73-59.uIgG4V322 (Fc fusion)
chain 1: B3 chain 1 with K84D, V91E
chain 2: B3 chain 2
Consider B4, for which the “Potency reduction, pSTAT5, human activated CD8+ T” value in assay [2] worked out at 18.9 fold.

B5: W3XX115-T2U10.Z73-58.uIgG4V322 (Fc fusion)
chain 1: B3 chain 1 with K84D, N88K
chain 2: B3 chain 2
B5: the “Potency reduction, pSTAT5, human activated CD8+ T” value in assay [2] was found to be 26.1 fold.
